Results taken from PMC2888511.

What was measured:
Beclin 1 [1] = biological target: Beclin 1 (UniProt Q14457); test: anti-flag IP of flag-Beclin 1, HA-Vps34 blot; conditions: reference: wild type with Cdk5/p25; sites T159
Beclin 1 [2] = biological target: Beclin 1 (UniProt Q14457); test: anti-flag IP of flag-Vps34, GFP-Beclin 1 blot; conditions: reference: wild type with Cdk5/p25; sites T159

binding against the reference (Beclin 1 [1]): stronger
binding against the reference (Beclin 1 [2]): stronger
Substance: Vps34 (from UniProt Q8NEB9) T159A with Cdk5/p25
